The text below walks through data of patent US20090286719A1.

One may read the Kd as the equilibrium constant for the complex coming apart. Lower therefore signals higher affinity.

Assay [1] concerns the target a site on the cancer and normal cell surface (human). The assay is described as follows: whole-cell binding assay on UISO-Mel-2 cells with 125I azurin, Scatchard analysis.
The target is the same in assay [2]. The assay is described as follows: whole-cell binding assay on UISO-Mel-2 cells, 125I azurin with or without unlabeled competitor, Scatchard analysis.

With “azurin from Pseudomonas aeruginosa (wt-azurin)”, in assay [1], the Bmax is 0.48 pm and the Kd turned out to be 10 nM.
On to “p18, Leu50-Gly67 of Pseudomonas aeruginosa azurin (peptide)”, for which the Bmax in assay [2] turned out to be 0.51 pm.
In the case of “p28, Leu50-Asp77 of Pseudomonas aeruginosa azurin (peptide)”, in assay [2], the Bmax is 3.
